T1: cynomolgus monkey TF ECD-His6 (cynomolgus monkey (Macaca fascicularis))
T1 construct: Expi293-derived; also called TF-His; cTF
T1 chain: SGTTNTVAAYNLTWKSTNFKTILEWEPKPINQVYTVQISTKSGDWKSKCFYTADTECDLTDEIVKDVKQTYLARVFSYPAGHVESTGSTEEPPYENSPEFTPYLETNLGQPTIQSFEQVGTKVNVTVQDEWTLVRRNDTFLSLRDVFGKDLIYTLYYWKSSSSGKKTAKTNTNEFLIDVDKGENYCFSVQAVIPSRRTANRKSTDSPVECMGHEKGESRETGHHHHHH

T2: pig TF ECD-His (pig (Sus scrofa))
T2 construct: also called pig TF-His; pTF
T2 chain: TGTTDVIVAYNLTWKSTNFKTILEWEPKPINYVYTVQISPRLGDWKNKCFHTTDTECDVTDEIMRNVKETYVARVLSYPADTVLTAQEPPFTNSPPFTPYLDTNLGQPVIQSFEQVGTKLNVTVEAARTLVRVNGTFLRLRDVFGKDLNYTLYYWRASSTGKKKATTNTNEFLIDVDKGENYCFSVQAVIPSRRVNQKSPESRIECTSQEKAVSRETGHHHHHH

T3: pig TF-His (Pig (Sus scrofa))
T3 construct: also called pig TF ECD-His; pTF
T3 chain: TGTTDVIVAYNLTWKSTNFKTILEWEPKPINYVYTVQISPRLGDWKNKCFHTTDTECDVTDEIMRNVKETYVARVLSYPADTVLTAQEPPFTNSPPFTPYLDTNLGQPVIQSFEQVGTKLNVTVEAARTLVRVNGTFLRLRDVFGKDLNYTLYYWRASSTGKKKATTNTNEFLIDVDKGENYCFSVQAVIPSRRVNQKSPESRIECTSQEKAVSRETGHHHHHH


How the values were obtained:
human TF ECD-His6 = target: T4, human TF ECD-His6 (human, UniProt P13726 33-251); experiment: BLI (ForteBio Octet)
T4 construct: Expi293-derived; Biacore used TF-His; also called TF-His; hTF
Experimental: (§1) Kinetic measurements for the anti-TF antibodies were conducted on an Octet QK384 (Pall ForteBio, Fremont, CA, USA) or a Biacore (GE Healthcare Bio-Sciences).
(§2) Briefly, ForteBio affinity measurements were performed by loading IgGs on-line onto AHC sensors. Sensors were equilibrated off-line in assay buffer for 30 min and then monitored on-line for 60 seconds for baseline establishment. Sensors with loaded IgGs were exposed to 100 nM antigen (human, cynomolgus, or mouse TF) for 3 min, afterwards they were transferred to assay buffer for 3 min for off-rate measurement. Alternatively, binding measurements were obtained by loading biotinylated TF monomer on SA sensors followed by exposure to 100 nM antibody Fab in solution. Kinetic data was analyzed and fitted using a 1:1 Langmuir binding model and the KD was calculated by dividing the koff by the kₒₙ.

[1] = target: T1, cynomolgus monkey TF ECD-His6; experiment: BLI (ForteBio Octet)
Experimental: as §1, §2

pig TF ECD-His = target: T2, pig TF ECD-His; experiment: SPR (Biacore), antibody captured by anti-human IgG
Experimental: (§3) For pig TF Biacore-based measurements, a given anti-TF antibody was captured by an anti-human IgG antibody covalently coupled to a CM5 chip (GE Healthcare Bio-Sciences). Association between the anti-TF antibodies and a five-point three-fold titration of pig TF-His starting at 100 nM was measured for 180 to 240 sec. Subsequently, dissociation between the anti-TF antibody and TF-His was measured for 1800 sec. Kinetic data was analyzed and fitted globally using a 1:1 binding model.
(§4) For rabbit TF Biacore-based measurements, a given anti-TF antibody was captured by an anti-human IgG antibody covalently coupled to a CM5 chip (GE Healthcare Bio-Sciences). Association between the anti-TF antibodies and a five-point three-fold titration of rabbit TF-His starting at 100 nM was measured for 180 to 240 sec. Subsequently, dissociation between the anti-TF antibody and TF-His was measured for 1800 sec. Kinetic data was analyzed and fitted globally using a 1:1 binding model.

rabbit TF ECD-His = target: T5, rabbit TF ECD-His (rabbit (Oryctolagus cuniculus), UniProt P24055 33-250); experiment: SPR (Biacore), antibody captured by anti-human IgG
T5 construct: also called rabbit TF-His
T5 sequence (P24055 other isoform, or with tags, fused parts or gaps): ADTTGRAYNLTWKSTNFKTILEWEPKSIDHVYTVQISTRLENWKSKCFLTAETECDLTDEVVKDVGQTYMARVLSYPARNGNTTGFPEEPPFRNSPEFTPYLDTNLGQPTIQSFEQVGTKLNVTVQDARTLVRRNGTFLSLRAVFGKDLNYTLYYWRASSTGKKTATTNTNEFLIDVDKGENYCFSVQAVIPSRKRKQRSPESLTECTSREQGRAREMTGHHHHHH
Experimental: as §3, §4

[2] = target: T6, full-length mouse TF with a C-terminal FLAG tag on Flp-In-CHO cells (mouse, UniProt P20352 29-294); experiment: flow cytometry, antibody titration on CHO cells expressing mouse TF
T6 construct: also called CHO-mTF; mouse TF-positive CHO cells
Experimental: (§5) After 2 washes, dead cells were labeled with TO-PRO-3 Iodide (ThermoFisher Scientific) and samples were analyzed on a CytoFLEX flow cytometer (Beckman Coulter, Brea, CA, USA) or Novocyte flow cytometer (ACEA Biosciences, San Diego, CA, USA). The median fluorescence intensities (MFIs) at each dilution were plotted and cell EC₅₀'s were derived using a 4-parameter binding model in Prism (GraphPad, La Jolla, CA, USA).

[3] = target: T6, full-length mouse TF with a C-terminal …; experiment: flow cytometry on CHO cells expressing mouse TF, MFI at 250 nM antibody
Experimental: as §5

[4] = target: T7, human Tissue Factor on human TF-positive cells (human, UniProt P13726 33-295); experiment: flow cytometry, antibody titration on HCT-116 cells (endogenous human TF), 4-parameter fit of MFI
T7 construct: also called hTF; CD142
Experimental: as §5

[5] = target: T7, human Tissue Factor on human …; experiment: competition flow cytometry on MDA-MB-231 cells: antibody titration first, then 20 nM FVII-Fc-Alexa488 as the blocked ligand
Experimental: (§6) After another 1 hr incubation on ice, cells were washed, stained with a viability dye, and analyzed by flow cytometry. The Alexa488 fluorescence data from viable cells was summarized using median fluorescence intensity.

[6] = target: T8, rTF (rat TF) construct on HEK293 cells (rat, UniProt P42533 29-252); experiment: live cell staining, HEK293 cells
T8 construct: not shown: transmembrane/cytoplasmic anchor of the cell-surface construct
T8 sequence (P42533 29-252 limits assumed): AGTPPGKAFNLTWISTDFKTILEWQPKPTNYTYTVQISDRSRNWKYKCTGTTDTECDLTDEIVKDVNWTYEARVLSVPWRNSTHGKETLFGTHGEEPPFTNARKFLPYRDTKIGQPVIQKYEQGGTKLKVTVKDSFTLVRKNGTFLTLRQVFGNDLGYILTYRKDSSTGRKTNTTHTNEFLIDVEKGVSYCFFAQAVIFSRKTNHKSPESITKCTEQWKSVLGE

[7] = target: T7, human Tissue Factor on human …; experiment: competition flow cytometry on MDA-MB-231 cells: antibody titration first, then 20 nM FVII-Fc-Alexa488 as the blocked ligand; remark: listed apart in the source
[8] = target: T7, human Tissue Factor on human …; experiment: competition flow cytometry on MDA-MB-231 cells: unlabeled antibody titration first, then 20 nM 39A-Alexa488 as the competitor
Experimental: as §6

pig TF-His = target: T3, pig TF-His; experiment: Biacore SPR, antibody captured by anti-human IgG on CM5, pig TF-His titrated from 100 nM, 1:1 fit
Experimental: The ability of certain antibodies was tested for binding to pig TF. For pig TF Biacore-based measurements, a given anti-TF antibody was captured by an anti-human IgG antibody covalently coupled to a CM5 chip (GE Healthcare Bio-Sciences). Association between the anti-TF antibodies and a five-point three-fold titration of pig TF-His starting at 100 nM was measured for 180 to 240 sec. Subsequently, dissociation between the anti-TF antibody and TF-His was measured for 1800 sec. Kinetic data was analyzed and fitted globally using a 1:1 binding model.

| Binder | Kd (human TF ECD-His6) [nM] | Kd [1] [nM] | binding result (pig TF ECD-His) | binding result (rabbit TF ECD-His) | binding result [2] | MFI at 250 nM [3] | EC50 [4] [nM] | IC50 (read off the curve) [5] [nM] | binding result [6] | IC50 [7] [nM] | IC50 [8] [nM] | Kd (pig TF-His) [nM] |
| --- | --- | --- | --- | --- | --- | --- | --- | --- | --- | --- | --- | --- |
| 1G (antibody, human IgG1, V domains shown, Human IgG1; also called antibody designated 1G) VH: EVQLLESGGGLVQPGGSLRLSCAASGFTFSSYAMAWVRQAPGKGLEWVSAISGSGGLTYYADSVKGRFTISRDNSKNTLYLQMNSLRAEDTAVYYCAKAPYGYYMDVWGKGTTVTVSS VL: not shown | 2.2 | 2.7 | no binding (tested: titration starting at 100 nM) | no binding (tested: titration starting at 100 nM) | no binding (tested: 250 nM) | 4300 | 0.058 | ~1 |  |  |  |  |
| 29D (antibody, human IgG1, V domains shown, Human IgG1; also called antibody designated 29D) VH: QVQLVESGGGVVQPGRSLRLSCAASGFTFHSRGMHWVRQAPGKGLEWVAVITYDGINKYYADSVEGRFTISRDNSKNTLYLQMNSLRAEDTAVYYCARDGVYYGVYDYWGQGTLVTVSS VL: not shown | 3.3 | 12 | no binding (tested: titration starting at 100 nM) | no binding (tested: titration starting at 100 nM) | no binding (tested: 250 nM) | 30000 | 0.237 | ~2 |  |  |  |  |
| TF-011 (antibody, V domains shown, Previously described anti-TF antibody; also called tisotumab) VH: EVQLLESGGGLVQPGGSLRLSCAASGFTFSNYAMSWVRQAPGKGLEWVSSISGSGDYTYYTDSVKGRFTISRDNSKNTLYLQMNSLRAEDTAVYYCARSPWGYYLDSWGQGTLVTVSS VL: DIQMTQSPPSLSASAGDRVTITCRASQGISSRLAWYQQKPEKAPKSLIYAASSLQSGVPSRFSGSGSGTDFTLTISSLQPEDFATYYCQQYNSYPYTFGQGTKLEIK |  |  |  |  |  |  |  |  | no binding | 1.01 | 0.61 |  |
| 25G9 (antibody, V domains shown, Human IgG (captured by anti-human IgG in the Biacore assay); also called antibody designated 25G9) VH: QVQLVQSGAEVKKPGASVKVSCKASGYTFRSYGISWVRQAPGQGLEWMGWVAPYSGNTNYAQKLQGRVTMTTDTSTSTAYMELRSLRSDDTAVYYCARDAGTYSPYGYGMDVWGQGTTVTVSS VL: DIQMTQSPSTLSASVGDRVTITCQASQSIDSWLAWYQQKPGKAPKLLIYSASYLESGVPSRFSGSGSGTEFTLTISSLQPDDFATYYCQRFQSLPPFTFGGGTKVEIK |  |  |  |  |  |  |  |  |  |  |  | 3.31 |
| 43D8 (antibody, V domains shown, Human IgG (captured by anti-human IgG in the Biacore assay); also called antibody designated 43D8) VH: QVQLQQWGAGLLKPSETLSLTCAVYGGSLSGYYWSWIRQPPGKGLEWIGEIGASGSTRYNPSLKSRVTISVDTSKNQFSLKLSSVTAADTAVYYCARDTPYYYEGGYYYYMDVWGKGTTVTVSS VL: EIVLTQSPGTLSLSPGERATLSCRASQSVSSSFLAWYQQKPGQAPRLLIYGAYSRATGIPDRFSGSGSGTDFTLTISRLEPEDFAVYYCQQAGVVPYTFGGGTKVEIK |  |  |  |  |  |  |  |  |  |  |  | 12.9 |
